In EP0569583B1, “[…] OF POLYETHER-S[…] AGENTS IN DIAGNOSIS AND THERAPY” (Deutsches Krebsforschungszentrum Stiftung des öffentlichen …, priority 1991, dated 1993):

Experiments:
[1] = tested on: experimentelle Tumoren und Xenotransplantate; assay: Concentration of the radiolabelled agents in experimental tumours and human xenografts; type: in vivo, Ratte; Nacktmaus; details: 300 µC = 11,1 MBq administered; all tumour models tested (Beispiel 2 compound only in Walker Carcinosarcom, Osteosarcom, Ovarialcarcinom O-342)
Source text: Die Konzentrierung dieser Mittel wurde an folgenden experimentellen Tumoren und an folgenden Tiermodellen geprüft:
Alle diese experimentellen Tumoren und Xenotransplantate wurden mit den Verbindungen a und c gemäß Beispiel 1 (also 1a und 1c) und drei davon, nämlich das Walker Carcinosarcom, das Osteosarcom und das Ovarialcarcinom (O-342) auch mit dem Diphosphat gemäß Beispiel 2 untersucht.
(§1) Bei allen diesen Anwendungsversuchen wurden immer 300 µC = 11,1 MBq verabreicht Es zeigten sich mit den eingesetzten Mitteln, nämlich 1a und 1c und die Verbindung aus Beispiel 2 eine Konzentration von mindestens 30% des Mittels an der gewünschten Stelle, also am Tumor. Die beigefügte Fig. 4 zeigt das Bild einer BDIX-Ratte mit Ovarialcarcinom 42 h nach Injektion, die mit ^131J-HOPAD-CMPEG, also ^131J-Hydroxyphenyl-1-aminome-than-1,1-diphosphonat-Cyanurchlorid aktiviertes Polyethylenglykol (n=ca. 100 bis 110) in einer Menge von 300 µC behandelt war. Das Bild zeigt, daß ganz unten, im Tumor ca. 30+/-2% des Mittels konzentriert sind, während in der Mitte die Leber ca. 10% zeigt und die Schilddrüse, die oberhalb der Leber sichtbar ist, weit weniger als 2% des Mittels aufgenommen hat Diese %-Angaben beziehen sich auf die Gesamtmenge an die mit radiojodmarkierten Mittel im Gesamtkörper der Ratte.

[2] = tested on: Ovarialcarcinom; assay: Whole-body distribution of radioiodine activity in tumour-bearing rat (Fig. 4, Fig. 5); type: in vivo, BDIX-Ratte
Procedure: as §1
Die beigefügte Fig. 5 zeigt die Messung einer mit ^131I-TOP-(CMPEG)4 behandelten BD IX Ratte (auch hier Ovarialcarcinom). Es zeigt sich ein ähnliches Ergebnis wie das von Fig. 4.
Von der gesamten Körperaktivität an radioaktivem Jod finden sich nach 150 h etwa 23% im Tumor, etwa 12% in der Leber, etwa 5% im Blut und etwa 3-4% jeweils in den Muskeln und in der Schilddrüse. Der Rest ist natürlich, wie auch bei der Aufnahme von Fig. 4, über den restlichen Körper verteilt.

[3] = BD IX Ratte with Ovarialcarcinom, after 150 h, % of total body activity of radioactive iodine (Fig. 5)
[4] = BDIX-Ratte with Ovarialcarcinom, 42 h after injection, 300 µC, % of total labelled agent in whole body (Fig. 4)

| Substance | Konzentration des Mittels an der gewünschten Stelle, also am Tumor [1] | im Blut [2, 3] | im Tumor [2, 3] | in den Muskeln [2, 3] | in der Leber [2, 3] | in der Schilddrüse [2, 3] | Leber [2, 4] | Schilddrüse [2, 4] | im Tumor konzentriert [2, 4] |
| --- | --- | --- | --- | --- | --- | --- | --- | --- | --- |
| ^111-In-Tetra-(hydroxyphenoxy)-phthalocyanin-(CMPEG)4 [1c] | ≥ 30% |  |  |  |  |  |  |  |  |
| ^131I-Tetra(hydroxyphenyl)-porphin-(CMPEG)4 [1a] | ≥ 30% | ~5% | ~23% | 3-4% | ~12% | 3-4% |  |  |  |
| ^131J-Hydroxyphenyl-1-aminome-than-1,1-diphosphonat-Cyanurchlorid aktiviertes Polyethylenglykol (n=ca. 100 bis 110) [Beispiel 2] | ≥ 30% |  |  |  |  |  | ca. 10% | < 2% | ca. 30+/-2% |
